The values that follow come from patent publication US20140212425A1.

Assay [1] has as its target Soluble single-chain FcRn (extracellular domain of the human FcRn heavy chain fused with β2-microglobulin via a flexible peptide linker) (human) (UniProt P55899). As to the kind of experiment: SPR (BIACORE X), scFcRn amine-coupled to CM5 chip, antibody 25-400 nM as analyte, pH 6.0, two-state reaction model; Run 3. On the technique in general: In SPR one partner is held on a chip, and binding of the other changes the refractive index at the surface.

Assay [2] has the same target. As to the kind of experiment: SPR (BIACORE X), scFcRn amine-coupled to CM5 chip, antibody 25-400 nM as analyte, pH 6.0, two-state reaction model; Run 2.
For assay [3] the target is unchanged. In words: SPR (BIACORE X), scFcRn amine-coupled to CM5 chip, antibody 25-400 nM as analyte, pH 6.0, two-state reaction model; Run 1.
Assay [4] shares this target. As to the kind of experiment: SPR (BIACORE X), scFcRn on CM5 chip, pH 6.0, two-state reaction model; mean of 3 runs, S.D. 1.5.
The target is the same in assay [5]. In words: SPR, scFcRn immobilised, pH 6.0.
The target is the same in assay [6]. In words: SPR (BIACORE X), scFcRn on CM5 chip, pH 6.0, two-state reaction model; mean of 3 runs, S.D. 2.72 × 10^4.
Assay [7] shares this target. As to the kind of experiment: SPR (BIACORE X), scFcRn on CM5 chip, pH 6.0, two-state reaction model; mean of 3 runs, S.D. 21.5.
Assay [8] shares this target. In words: SPR (BIACORE X), scFcRn on CM5 chip, pH 6.0, two-state reaction model; mean of 3 runs, S.D. 0.0024.
In assay [9] the target is CD20 on cells (Daudi cells, B cells in PBMCs) (human) (UniProt P11836). As to the kind of experiment: cell-based or functional assay.
For assay [10], the target named is CD22 on cells (B cells in PBMCs, Daudi, D1-1 cells) (human) (UniProt P20273). In words: cell-based or functional assay.

Chain of Soluble single-chain FcRn (extracellular domain of the human FcRn heavy chain fused with β2-microglobulin via a flexible peptide linker) (human) (P55899 24-297 limits assumed, chain 1 of 2): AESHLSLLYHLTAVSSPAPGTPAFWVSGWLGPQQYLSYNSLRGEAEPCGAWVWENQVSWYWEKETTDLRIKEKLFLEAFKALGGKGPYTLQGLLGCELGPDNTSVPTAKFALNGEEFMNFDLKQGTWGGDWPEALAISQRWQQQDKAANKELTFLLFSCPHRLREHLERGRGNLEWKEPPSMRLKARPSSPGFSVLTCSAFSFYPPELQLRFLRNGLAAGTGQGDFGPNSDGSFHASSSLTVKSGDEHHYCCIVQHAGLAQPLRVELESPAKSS
Chain of Soluble single-chain FcRn (extracellular domain of the human FcRn heavy chain fused with β2-microglobulin via a flexible peptide linker) (human) (P61769 21-119 limits assumed, chain 2 of 2, further chain): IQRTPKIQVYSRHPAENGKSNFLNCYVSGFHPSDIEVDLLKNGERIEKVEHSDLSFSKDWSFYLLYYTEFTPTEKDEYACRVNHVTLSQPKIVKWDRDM
Chain of CD20 on cells (Daudi cells, B cells in PBMCs) (human) (P11836 whole entry): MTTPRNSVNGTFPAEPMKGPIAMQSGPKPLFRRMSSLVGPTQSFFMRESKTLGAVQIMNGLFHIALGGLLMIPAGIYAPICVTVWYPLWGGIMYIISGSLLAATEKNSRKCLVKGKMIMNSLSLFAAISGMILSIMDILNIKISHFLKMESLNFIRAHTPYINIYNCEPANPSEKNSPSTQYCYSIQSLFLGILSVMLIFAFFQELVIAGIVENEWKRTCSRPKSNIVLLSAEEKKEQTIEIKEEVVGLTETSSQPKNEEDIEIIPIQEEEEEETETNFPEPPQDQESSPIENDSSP

A word on the Kd: it is the equilibrium constant for the complex coming apart. The low end stands for higher affinity, the high end for lower affinity. With “22-(20)-(20), Fc-based anti-CD22/CD20 bispecific hexavalent antibody (CH3-AD2-IgG-epratuzumab conjugated with CH1-DDD2-Fab-veltuzumab) (bispecific antibody)”, the Kd in assay [1] worked out at 352 nM; in [2] it was 267 nM.

As for “Epratuzumab (humanized anti-CD22 IgG1κ) (antibody)”, the Kd in [3] amounted to 15 nM; in [1], 15.8 nM; in assay [2], 17.9 nM; in [4], 16.3 nM.

By koff is commonly meant a measure of how fast the partners let go of each other. High values mean a short-lived complex, low ones a long-lived complex. A word on the kon: it is the rate constant with which the complex forms. Higher therefore signals faster complex formation. Regarding “22*-(20)-(20), anti-CD22/CD20 bispecific hexavalent antibody (Ck-AD2-IgG-epratuzumab conjugated with CH1-DDD2-Fab-veltuzumab) (bispecific antibody)”, the Kd was 141 nM in [3]; 178 nM in assay [1]; 155 nM in assay [5]; 179 nM in assay [2]; 166 nM in [7]. In addition, the koff in [3] was found to be 0.0395 s⁻¹; in [1], 0.0441 s⁻¹; in [2] it was 0.0404 s⁻¹; in [8], 0.0413 s⁻¹. For the same molecule, the kon worked out at 280000 M⁻¹ s⁻¹ in assay [3], 248000 M⁻¹ s⁻¹ in assay [1], 251000 M⁻¹ s⁻¹ in [6] and 226000 M⁻¹ s⁻¹ in assay [2]. This molecule also came in with a fold stronger binding affinity than 22-(20)-(20) in assay [5] of 2 fold.

As for “20-2b (CH3-AD2-IgG-veltuzumab conjugated with IFNα2b-DDD2) (from UniProt P01563 24-188)”, the cytotoxicity in Daudi cells, EC50 (MTS assay, 3 days) in [9] came to 200 nM.

In assay [9], “20*-2b (Ck-AD2-IgG-veltuzumab conjugated with IFNα2b-DDD2) (from UniProt P01563 24-188)” gave a cytotoxicity in Daudi cells, EC50 (MTS assay, 3 days) of 200 nM.

B1: F(ab′)2 fragment of epratuzumab (protein, INN chains, looked up)
VH: QVQLVQSGAEVKKPGSSVKVSCKASGYTFTSYWLHWVRQAPGQGLEWIGYINPRNDYTEYNQNFKDKATITADESTNTAYMELSSLRSEDTAFYFCARRDITTFYWGQGTTVTVSS
VL: DIQLTQSPSSLSASVGDRVTMSCKSSQSVLYSANHKNYLAWYQQKPGKAPKLLIYWASTRESGVPSRFSGSGSGTDFTFTISSLQPEDIATYYCHQYLSSWTFGGGTKLEIK
modifications: F(ab')2
With B1, the CD22 level on the surface of B cells in PBMCs (% of isotype control MFI), 10 µg/mL in [10] came out at 45 % control.
